Laboratory results as given in US20060263802A1 (CRUCELL HOLLAND B V, published 2006).

How the values were obtained:
Assay in all cases: PEPSCAN ELISA, looped peptide, 10 ug/ml
[1] = molecular target: looped/cyclic peptide … (rabies virus strain ERA)
[2] = molecular target: looped/cyclic peptide … (rabies virus strain ERA); remark: listed apart in the source
[3] = molecular target: looped/cyclic peptide … (rabies virus strain ERA); remark: listed apart in the source
[4] = molecular target: looped/cyclic peptide … (rabies virus strain ERA); remark: listed apart in the source
[5] = molecular target: looped/cyclic peptide … (rabies virus strain ERA); remark: listed apart in the source
[6] = molecular target: looped/cyclic peptide … (rabies virus strain ERA); remark: listed apart in the source
[7] = molecular target: looped/cyclic peptide … (rabies virus strain ERA); remark: listed apart in the source
[8] = molecular target: looped/cyclic peptide … (rabies virus strain ERA); remark: listed apart in the source
[9] = molecular target: looped/cyclic peptide … (rabies virus strain ERA); remark: listed apart in the source
[10] = molecular target: looped/cyclic peptide … (rabies virus strain ERA); remark: listed apart in the source
[11] = molecular target: looped/cyclic peptide … (rabies virus strain ERA); remark: listed apart in the source
[12] = molecular target: looped/cyclic peptide … (rabies virus strain ERA); remark: listed apart in the source
[13] = molecular target: looped/cyclic peptide … (rabies virus strain ERA); remark: listed apart in the source
[14] = molecular target: looped/cyclic peptide … (rabies virus strain ERA); remark: listed apart in the source
[15] = molecular target: looped/cyclic peptide … (rabies virus strain ERA); remark: listed apart in the source
[16] = molecular target: looped/cyclic peptide … (rabies virus strain ERA); remark: listed apart in the source
[17] = molecular target: looped/cyclic peptide … (rabies virus strain ERA); remark: listed apart in the source
[18] = molecular target: looped/cyclic peptide … (rabies virus strain ERA); remark: listed apart in the source
[19] = molecular target: looped/cyclic peptide … (rabies virus strain ERA); remark: listed apart in the source
[20] = molecular target: looped/cyclic peptide … (rabies virus strain ERA); remark: listed apart in the source
[21] = molecular target: looped/cyclic peptide … (rabies virus strain ERA); remark: listed apart in the source
[22] = molecular target: looped/cyclic peptide … (rabies virus strain ERA); remark: listed apart in the source
[23] = molecular target: looped/cyclic peptide … (rabies virus strain ERA); remark: listed apart in the source
[24] = molecular target: looped/cyclic peptide … (rabies virus strain ERA); remark: listed apart in the source
[25] = molecular target: looped/cyclic peptide … (rabies virus strain ERA); remark: listed apart in the source
[26] = molecular target: looped/cyclic peptide … (rabies virus strain ERA); remark: listed apart in the source
[27] = molecular target: looped/cyclic peptide … (rabies virus strain ERA); remark: listed apart in the source
[28] = molecular target: looped/cyclic peptide … (rabies virus strain ERA); remark: listed apart in the source
[29] = molecular target: looped/cyclic peptide … (rabies virus strain ERA); remark: listed apart in the source
[30] = molecular target: looped/cyclic peptide … (rabies virus strain ERA); remark: listed apart in the source
[31] = molecular target: looped/cyclic peptide … (rabies virus strain ERA); remark: listed apart in the source
[32] = molecular target: looped/cyclic peptide … (rabies virus strain ERA); remark: listed apart in the source
[33] = molecular target: looped/cyclic peptide … (rabies virus strain ERA); remark: listed apart in the source
[34] = molecular target: looped/cyclic peptide … (rabies virus strain ERA); remark: listed apart in the source
[35] = molecular target: looped/cyclic peptide … (rabies virus strain ERA); remark: listed apart in the source
[36] = molecular target: looped/cyclic peptide … (rabies virus strain ERA); remark: listed apart in the source
[37] = molecular target: looped/cyclic peptide … (rabies virus strain ERA); remark: listed apart in the source
[38] = molecular target: looped/cyclic peptide … (rabies virus strain ERA); remark: listed apart in the source
[39] = molecular target: looped/cyclic peptide … (rabies virus strain ERA); remark: listed apart in the source
[40] = molecular target: looped/cyclic peptide … (rabies virus strain ERA); remark: listed apart in the source
[41] = molecular target: looped/cyclic peptide … (rabies virus strain ERA); remark: listed apart in the source
[42] = molecular target: looped/cyclic peptide … (rabies virus strain ERA); remark: listed apart in the source
[43] = molecular target: looped/cyclic peptide … (rabies virus strain ERA); remark: listed apart in the source
[44] = molecular target: looped/cyclic peptide … (rabies virus strain ERA); remark: listed apart in the source
[45] = molecular target: looped/cyclic peptide … (rabies virus strain ERA); remark: listed apart in the source

B1: human monoclonal antibody CRJA (antibody, V domains shown)
VH: EVQLLESGGGLVQPGGSLRLSCAASGFTFSNYAMSWVRQAPGKGLEWVSAISASGHSTYLADSVKGRFTISRDNSKNTLYLQMNSLRAEDTAVYYCAKDREVTMIVVLNGGFDYWGQGTRVTVSS
VL: EIVLTQSPATLSLSPGERATLACRASQTASRYLAWYQQKPGQAPRLLIYDTSNRATGIPARFSGSGSGTDFTLSISSLEPEDFAVYYCQQRFNWPWTFGQGTKVEFK
OD [1]: 45 OD | OD [2]: 108 OD | OD [3]: 113 OD | OD [4]: 83 OD | OD [5]: 87 OD | OD [6]: 93 OD | OD [7]: 105 OD | OD [8]: 75 OD | OD [9]: 71 OD | OD [10]: 78 OD | OD [11]: 108 OD | OD [12]: 165 OD | OD [13]: 100 OD | OD [14]: 96 OD | OD [15]: 105 OD | OD [16]: 104 OD | OD [17]: 104 OD | OD [18]: 160 OD | OD [19]: 52 OD | OD [20]: 44 OD | OD [21]: 94 OD | OD [22]: 96 OD | OD [23]: 100 OD | OD [24]: 71 OD | OD [25]: 108 OD | OD [26]: 98 OD | OD [27]: 90 OD | OD [28]: 110 OD | OD [29]: 105 OD | OD [30]: 104 OD | OD [31]: 127 OD | OD [32]: 120 OD | OD [33]: 92 OD | OD [34]: 100 OD | OD [35]: 92 OD | OD [36]: 98 OD | OD [37]: 104 OD | OD [38]: 98 OD | OD [39]: 98 OD | OD [40]: 96 OD | OD [41]: 87 OD | OD [42]: 90 OD | OD [43]: 68 OD | OD [44]: 89 OD | OD [45]: 120 OD
